Test system: GRE (glucocorticoid response element)-Luciferase reporter
Assay: GRE-luciferase reporter assay of transactivation potential of reconstructed GR alleles co-transfected into HEK 293 cells
Assay type: cell-based, human
Description: An exemplary assay for determining the transactivation potential of a GR polypeptide is described below. The GR nucleic acid sequence encoding the GR polypeptide of interest can be cloned into a first vector (e.g., pcDNA4, Invitrogen, Carlsbad, Calif.). A second vector can be constructed to contain a reporter gene, e.g., the luciferase gene, under the control of a GRE. These two vectors can be co-transfected into a cell, e.g., a human embryonic kidney cell (HEK 293). Skilled practitioners will recognize that a number of cell types can be used to test whether a GR polypeptide is functional. The cell will then express the GR polypeptide encoded by the GR nucleic acid sequence on the first vector. […] The product of the reporter gene, e.g., luciferase, can then be detected and quantified using conventional methods. For example, when a luciferin substrate is added, luciferase will produce luminescence that can be detected and quantified. […]
The reconstructed GR allele expression plasmids described above were co-transfected with a GRE (glucocorticoid response element)-Luciferase reporter plasmid (Stratagene) using Fugene HD/6 (Roche) into HEK (human embryonic kidney) 293 cells, grown in Dulbecco's Modified Eagle Medium with 10% fetal bovine serum and 1% Penicillin/Streptomycin (Invitrogen.). […] The differences in luminescence were graphed and analyzed.

B1: allele 66-63: Full-length human GR with substitutions N72D, V321A, R460K, F749G (protein, UniProt P04150 1-777, looked up, variant N72D V321A R460K F749G)
Glucocorticoid receptor: MDSKESLTPGREENPSSVLAQERGDVMDFYKTLRGGATVKVSASSPSLAVASQSDSKQRRLLVDFPKGSVSDAQQPDLSKAVSLSMGLYMGETETKVMGNDLGFPQQGQISLSSGETDLKLLEESIANLNRSTSVPENPKSSASTAVSAAPTEKEFPKTHSDVSSEQQHLKGQTGTNGGNVKLYTTDQSTFDILQDLEFSSGSPGKETNESPWRSDLLIDENCLLSPLAGEDDSFLLEGNSNEDCKPLILPDTKPKIKDNGDLVLSSPSNVTLPQVKTEKEDFIELCTPGVIKQEKLGTVYCQASFPGANIIGNKMSAISAHGVSTSGGQMYHYDMNTASLSQQQDQKPIFNVIPPIPVGSENWNRCQGSGDDNLTSLGTLNFPGRTVFSNGYSSPSMRPDVSSPPSSSSTATTGPPPKLCLVCSDEASGCHYGVLTCGSCKVFFKRAVEGQHNYLCAGKNDCIIDKIRRKNCPACRYRKCLQAGMNLEARKTKKKIKGIQQATTGVSQETSENPGNKTIVPATLPQLTPTLVSLLEVIEPEVLYAGYDSSVPDSTWRIMTTLNMLGGRQVIAAVKWAKAIPGFRNLHLDDQMTLLQYSWMFLMAFALGWRSYRQSSANLLCFAPDLIINEQRMTLPCMYDQCKHMLYVSSELHRLQVSYEEYLCMKTLLLLSSVPKDGLKSQELFDEIRMTYIKELGKAIVKREGNSSQNWQRFYQLTKLLDSMHEVVENLLNYCFQTFLDKTMSIEGPEMLAEIITNQIPKYSNGNIKKLLFHQK
luciferase activity (transactivation potential), in words (FIG. 5): very low level

B2: allele 66-62: Full-length human GR with substitutions N72D, V321A, N766S (protein, UniProt P04150 1-777, looked up, variant N72D V321A N766S)
Glucocorticoid receptor: MDSKESLTPGREENPSSVLAQERGDVMDFYKTLRGGATVKVSASSPSLAVASQSDSKQRRLLVDFPKGSVSDAQQPDLSKAVSLSMGLYMGETETKVMGNDLGFPQQGQISLSSGETDLKLLEESIANLNRSTSVPENPKSSASTAVSAAPTEKEFPKTHSDVSSEQQHLKGQTGTNGGNVKLYTTDQSTFDILQDLEFSSGSPGKETNESPWRSDLLIDENCLLSPLAGEDDSFLLEGNSNEDCKPLILPDTKPKIKDNGDLVLSSPSNVTLPQVKTEKEDFIELCTPGVIKQEKLGTVYCQASFPGANIIGNKMSAISAHGVSTSGGQMYHYDMNTASLSQQQDQKPIFNVIPPIPVGSENWNRCQGSGDDNLTSLGTLNFPGRTVFSNGYSSPSMRPDVSSPPSSSSTATTGPPPKLCLVCSDEASGCHYGVLTCGSCKVFFKRAVEGQHNYLCAGRNDCIIDKIRRKNCPACRYRKCLQAGMNLEARKTKKKIKGIQQATTGVSQETSENPGNKTIVPATLPQLTPTLVSLLEVIEPEVLYAGYDSSVPDSTWRIMTTLNMLGGRQVIAAVKWAKAIPGFRNLHLDDQMTLLQYSWMFLMAFALGWRSYRQSSANLLCFAPDLIINEQRMTLPCMYDQCKHMLYVSSELHRLQVSYEEYLCMKTLLLLSSVPKDGLKSQELFDEIRMTYIKELGKAIVKREGNSSQNWQRFYQLTKLLDSMHEVVENLLNYCFQTFLDKTMSIEFPEMLAEIITNQIPKYSSGNIKKLLFHQK
fold change in luciferase activity relative to the luciferase activity induced by the reference human GR polypeptide (medium with 10% fetal bovine serum, FIG. 5, experiment repeated six times): 5.5 fold
